For 1 molecule, OD (450 nm) results are on record in patent US20260184782A1.

The target in the test is human TIGIT-Fc (human) (UniProt Q495A1). The test can be described thus: CD155 competition ELISA, single point.
human TIGIT-Fc (human), sequence (Q495A1 22-141 limits assumed): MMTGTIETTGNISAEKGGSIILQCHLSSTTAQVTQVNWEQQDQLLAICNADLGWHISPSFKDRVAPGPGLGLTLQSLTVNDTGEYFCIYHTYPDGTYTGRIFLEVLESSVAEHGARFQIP

B1: TIGIT-SC153 (Fc fusion)
VHH: EVQLVESGGGLVQPGGSLRLSCAASGNTFSGGFMGWFRQAPGKEREWVASVLRGGYTWYADSVKGRFTISADNSKNTAYLQMNSLKPEDTAVYYCARAGGCSGTSCYDGWFDPWGQGTLVTVSS
The molecule B1 yielded an OD (450 nm) of 0.8 OD.
